Measurements from doi:10.1101/2023.06.07.543977.

T1: mKu (mycobacterial Ku) (Mycobacterium tuberculosis, UniProt P9WKD9 1-273)
T1 sequence: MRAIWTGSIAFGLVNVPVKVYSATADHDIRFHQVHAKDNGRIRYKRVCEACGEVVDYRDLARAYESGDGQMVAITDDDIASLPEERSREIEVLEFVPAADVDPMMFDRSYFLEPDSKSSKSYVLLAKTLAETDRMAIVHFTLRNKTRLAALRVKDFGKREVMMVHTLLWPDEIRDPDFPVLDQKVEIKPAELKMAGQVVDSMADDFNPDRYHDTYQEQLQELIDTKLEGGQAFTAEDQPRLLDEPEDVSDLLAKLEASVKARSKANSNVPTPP

B1: 20 bp dsDNA (dsDNA)
DNA 1: GTCGTAGCCCACCTGACCGT
DNA 2: ACGGTCAGGTGGGCTACGAC
B2: 29 bp dsDNA (dsDNA)
DNA 1: CGAACCAGCTGGCGCATAGCCGCGCTATC
DNA 2: GATAGCGCGGCTATGCGCCAGCTGGTTCG

Biological target: T1, mKu (mycobacterial Ku)
Experiment: SPR

| Binder | apparent K (half saturation) [nM] |
| --- | --- |
| B1 | 10.8 ± 2.47 |
| B2 | 17.9 ± 4.58 |
